This is an account of results in US6936690 (Takeda / Millennium, dated 2005).

The target in experiment [1] is T1, Myc-tagged CARD-14 (full-length CARD-14 with C-terminal Myc epitopes, pCMV-Tag 5A) (human, UniProt Q9BXL6 1-1004).
T1 construct: Expressed in 293T cells (co-immunoprecipitation, Bcl-10 phosphorylation) and Rat-1 cells (co-localization)
T1 sequence: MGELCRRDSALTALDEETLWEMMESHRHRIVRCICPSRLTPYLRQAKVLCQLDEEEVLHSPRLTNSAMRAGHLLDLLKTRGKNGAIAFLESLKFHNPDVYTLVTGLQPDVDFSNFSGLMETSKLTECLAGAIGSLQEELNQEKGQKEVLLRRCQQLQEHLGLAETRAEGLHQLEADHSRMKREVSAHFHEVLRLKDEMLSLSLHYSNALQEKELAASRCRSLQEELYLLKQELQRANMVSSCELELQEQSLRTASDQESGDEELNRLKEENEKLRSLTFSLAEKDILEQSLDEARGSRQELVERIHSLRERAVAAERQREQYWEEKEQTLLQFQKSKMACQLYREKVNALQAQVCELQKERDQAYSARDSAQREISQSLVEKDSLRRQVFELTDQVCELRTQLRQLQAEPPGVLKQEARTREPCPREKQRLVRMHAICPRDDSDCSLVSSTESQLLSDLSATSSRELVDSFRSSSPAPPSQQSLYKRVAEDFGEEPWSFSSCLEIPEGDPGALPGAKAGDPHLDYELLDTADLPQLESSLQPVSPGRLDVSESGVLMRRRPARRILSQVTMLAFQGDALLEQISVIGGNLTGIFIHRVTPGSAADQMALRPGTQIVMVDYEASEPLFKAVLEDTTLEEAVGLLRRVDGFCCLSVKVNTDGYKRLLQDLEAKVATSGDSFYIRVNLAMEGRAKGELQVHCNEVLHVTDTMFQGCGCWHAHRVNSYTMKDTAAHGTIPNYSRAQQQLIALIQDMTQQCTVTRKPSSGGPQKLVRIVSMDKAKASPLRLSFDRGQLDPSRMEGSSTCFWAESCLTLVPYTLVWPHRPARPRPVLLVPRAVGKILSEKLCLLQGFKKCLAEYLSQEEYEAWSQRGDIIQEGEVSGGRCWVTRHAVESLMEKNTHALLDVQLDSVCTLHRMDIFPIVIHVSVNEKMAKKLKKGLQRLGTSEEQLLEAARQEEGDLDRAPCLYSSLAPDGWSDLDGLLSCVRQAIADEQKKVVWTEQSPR
Kind of experiment: co-localization by immunofluorescence in Rat-1 cells. On the procedure:
To further confirm the interaction between CARD-14 and Bcl-10, co-localization experiments were performed with full-length CARD-14. In these studies, Rat-1 cells were transfected in PDL-coated glass chamber slides (BioCoat, Becton-Dickinson Labware) with plasmids expressing HA-tagged Bcl10 and Myc-tagged CARD-14 using FuGENE-6 (Roche Molecular Biochemicals) for 20 hours. Cells were fixed in 4% paraformaldehyde, permeabilized and blocked in buffer containing 0.4% Triton X-100, and sequentially incubated with primary and secondary antibodies: rabbit anti-HA polyclonal Y-11 (Santa Cruz Biotechnology), mouse anti-Myc monoclonal 9E10 (Oncogene Research Products), Alexa-488 Goat anti-mouse IgG (Molecular Probes) and Alexa-594 Goat anti-rabbit IgG (Molecular Probes). No cross-reactivity was observed between any of the antibodies. Images were acquired using a Nikon T200 microscope with a 60× oil objective and an Orca100 digital camera (Hammamatsu, Inc.) driven by MetaMorph software (Universal Imaging Corp.). Final images were prepared using Adobe PhotoShop.

Experiment [2] deals with T2, CARD-14 protein labeled with 35S-methionine (human, UniProt Q9BXL6 1-1004, limits assumed, labeled with 35S-methionine).
T2 construct: also called radiolabeled CARD-14
T2 sequence: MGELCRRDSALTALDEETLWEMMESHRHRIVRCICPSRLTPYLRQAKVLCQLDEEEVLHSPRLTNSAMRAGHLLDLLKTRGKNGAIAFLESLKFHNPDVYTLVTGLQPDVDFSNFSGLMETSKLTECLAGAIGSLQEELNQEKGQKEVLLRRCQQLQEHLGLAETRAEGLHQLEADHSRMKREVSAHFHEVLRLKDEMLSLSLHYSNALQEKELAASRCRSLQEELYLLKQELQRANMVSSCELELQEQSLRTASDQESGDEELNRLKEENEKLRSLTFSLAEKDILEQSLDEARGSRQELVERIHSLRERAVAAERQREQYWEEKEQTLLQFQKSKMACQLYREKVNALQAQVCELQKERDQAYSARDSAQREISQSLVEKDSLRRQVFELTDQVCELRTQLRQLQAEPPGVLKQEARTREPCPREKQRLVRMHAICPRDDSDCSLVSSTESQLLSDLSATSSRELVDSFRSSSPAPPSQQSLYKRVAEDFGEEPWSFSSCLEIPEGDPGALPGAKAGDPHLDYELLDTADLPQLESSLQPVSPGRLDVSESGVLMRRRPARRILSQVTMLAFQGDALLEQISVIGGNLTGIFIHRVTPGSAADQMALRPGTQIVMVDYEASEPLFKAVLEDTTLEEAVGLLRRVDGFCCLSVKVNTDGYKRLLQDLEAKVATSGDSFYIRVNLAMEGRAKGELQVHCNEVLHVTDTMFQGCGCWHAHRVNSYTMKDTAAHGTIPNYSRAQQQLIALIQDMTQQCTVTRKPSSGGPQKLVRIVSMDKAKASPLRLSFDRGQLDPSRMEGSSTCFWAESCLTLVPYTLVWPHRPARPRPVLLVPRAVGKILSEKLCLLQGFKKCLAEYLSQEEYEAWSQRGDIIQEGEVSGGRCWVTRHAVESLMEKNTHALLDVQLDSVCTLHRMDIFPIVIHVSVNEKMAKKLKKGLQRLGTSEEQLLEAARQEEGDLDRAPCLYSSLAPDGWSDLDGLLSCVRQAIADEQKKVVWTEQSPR
Kind of experiment: GST pull-down on glutathione-sepharose, autoradiography. On the procedure: The interaction of radiolabeled CARD-14 with GST-Bcl-10 in vitro was also examined. Bcl-10 wild type and L41R mutant were expressed in DH5 alpha bacteria as GST fusion proteins and equal amounts of protein were immobilized on glutathione-sepharose (Amersham-Pharmacia). An equal amount of CARD-14 protein, labeled with ^35S-methionine, was incubated with the protein bound sepharose beads in 100 μl of binding buffer (50 mM Tris-Cl pH 7.6, 120 mM NaCl, 0.5% Brij and protease inhibitors) for three hours. The beads were washed four times with the same buffer and boiled in SDS sample buffer. The proteins were then resolved on a 10% SDS gel and visualized by autoradiography.

B1: HA-tagged Bcl10 (other, UniProt O95999 1-233, looked up, not shown: small tags and cut ends)
chain: MEPTAPSLTEEDLTEVKKDALENLRVYLCEKIIAERHFDHLRAKKILSREDTEEISCRTSSRKRAGKLLDYLQENPKGLDTLVESIRREKTQNFLIQKITDEVLKLRNIKLEHLKGLKCSSCEPFPDGATNNLSRSNSDESNFSEKLRASTVMYHPEGESSTTPFFSTNSSLNLPVLEVGRTENTIFSSTTLPRPGDPGAPPLPPDLQLEEEGTCANSSEMFLPLRSRTVSRQ
notes: Expressed in Rat-1 cells (co-localization) and 293T cells (phosphorylation); also called HA-Bcl-10
For B1, the binding result in experiment [1] is recorded as “binds”.

B2: GST-Bcl-10 L41R mutant (other, UniProt O95999 1-233, looked up)
chain: MEPTAPSLTEEDLTEVKKDALENLRVYLCEKIIAERHFDHRRAKKILSREDTEEISCRTSSRKRAGKLLDYLQENPKGLDTLVESIRREKTQNFLIQKITDEVLKLRNIKLEHLKGLKCSSCEPFPDGATNNLSRSNSDESNFSEKLRASTVMYHPEGESSTTPFFSTNSSLNLPVLEVGRTENTIFSSTTLPRPGDPGAPPLPPDLQLEEEGTCANSSEMFLPLRSRTVSRQ
notes: Expressed in DH5 alpha bacteria and immobilized on glutathione-sepharose; also called variant of Bcl-10 with a point mutation (L41R); not shown: GST fusion partner
With B2, the binding result in experiment [2] was “no binding”.
